Data as given in patent US20250223358A1.
Several values for one entry are separate records, joined by “and”; a condition that tells them apart may be missing. Equal entries are not always repeated.

Biological target: human CD3 (human) (UniProt P07766)
Test: cell-based or functional assay

Chain of human CD3 (human) (P07766 23-207, chain 1 of 3): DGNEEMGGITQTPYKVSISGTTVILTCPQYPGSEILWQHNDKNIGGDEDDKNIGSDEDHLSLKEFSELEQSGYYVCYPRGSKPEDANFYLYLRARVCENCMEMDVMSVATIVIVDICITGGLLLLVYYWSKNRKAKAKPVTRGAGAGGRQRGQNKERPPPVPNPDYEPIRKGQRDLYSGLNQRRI
Chain of human CD3 (human) (P04234 22-171, chain 2 of 3, further chain): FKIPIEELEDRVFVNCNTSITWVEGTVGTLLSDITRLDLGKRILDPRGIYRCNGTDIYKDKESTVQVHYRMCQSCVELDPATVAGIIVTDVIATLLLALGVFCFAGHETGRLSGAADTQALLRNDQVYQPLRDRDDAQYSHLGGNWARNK
Chain of human CD3 (human) (P09693 23-182, chain 3 of 3, further chain): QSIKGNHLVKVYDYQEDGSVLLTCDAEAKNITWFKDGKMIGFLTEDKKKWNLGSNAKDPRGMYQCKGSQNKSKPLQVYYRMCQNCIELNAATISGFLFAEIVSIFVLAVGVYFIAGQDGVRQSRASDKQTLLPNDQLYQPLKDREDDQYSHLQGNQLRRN

In the case of Isotype control (antibody), the RLU (Jurkat-NFAT-luciferase activation, antibody coated at 50 ug/mL), Plate 1 is reported as 564 RLU and 582 RLU, the RLU (Jurkat-NFAT-luciferase activation, antibody coated at 50 ug/mL), Plate 2 is reported as 386 RLU and 380 RLU and the RLU (Jurkat-NFAT-luciferase activation, antibody coated at 50 ug/mL), Plate 3 is reported as 237 RLU and 231 RLU.
